Experimental data taken from EP3620472A1.

Legend:
[1] = target: recombinant mature human PAI-1 (24-402) stabilized in active conformation (N150H, K154T, Q319L, M354I) (human) (UniProt P05121); assay: crystal structure, heavy chain, average of 4 complexes
[2] = target: cynomolgus PAI-1 (cynomolgus (Macaca fascicularis)); assay: crystal structure, light chain, average of 2 complexes
[3] = target: cynomolgus PAI-1 (cynomolgus (Macaca fascicularis)); assay: crystal structure, heavy chain, average of 2 complexes
[4] = target: recombinant mature human PAI-1 (24-402) stabilized in active conformation (N150H, K154T, Q319L, M354I) (human) (UniProt P05121); assay: crystal structure, light chain, average of 4 complexes

surface area of the interaction [1]: 674 Å^2
surface area of the interaction [2]: 360 Å^2
surface area of the interaction [3]: 703 Å^2
surface area of the interaction [4]: 372 Å^2
B1: Fab A44V11 (Fab, V domains shown)
VH: QMTLKESGPTLVKPTQTLSLTCSVSGDSMTNGYWNWIRQFPGKALEYMGYITYSGSTYYNPSLKGRITITRDTSKNQYYLTLSSVTTVDTATYYCARWHYGSPYYFDYWGQGTTLTVSS
VL: DIKMTQSPSSLSASVGDRVTITCKASQDINSYLSWLQQKPGKSPKTLIYRAQRSVEGVPSRFSGSGSGQDYSLTISSLQPEDLGIYYCLQYDEFPPTFGGGTKLEIK
